Data from publication PMC7588232, “Molecular mechanism for direct actin force-sensing by α-catenin” (eLife, 2020).

Target: F-actin (filamentous actin), unlabeled, from chicken skeletal muscle (chicken, UniProt P68139 1-377)
Experiment: cryo-EM structure; 0.6 uM F-actin in KMEI applied to the grid, then 10 uM metavinculin ABD or 20 uM α-catenin ABD in KMEI, 25 °C; helical reconstruction (IHRSR, RELION 3.0)
Conditions: both partners purified

Row | Binder | stoichiometry N
1 | H. sapiens metavinculin ABD (879-1134), not Halo-tagged (domain or fragment, residues 981-1131 modelled in the map; Form used for cryo-EM; source: E. coli Rosetta2(DE3), purified (Ni-NTA, TEV cleavage, HiTrapQ, Superdex 200; no glycerol); not shown: His6, N-terminal, cleaved; Strep-tag, N-terminal, cleaved) EEKDEEFPEQKAGEVINQPMMMAARQLHDEARKWSSKPGIPAAEVGIGVVAEADAADAAGFPVPPDMEDDYEPELLLMPSNQPVNQPILAAAQSLHREATKWSSKGNDIIAAAKRMALLMAEMSRLVRGGSGTKRALIQCAKDIAKASDEVTRLAKEVAKQCTDKRIRTNLLQVCERIPTISTQLKILSTVKATMLGRTNISDEESEQATEMLVHNAQNLMQSVKETVREAEAASIKIRTDAGFTLRWVRKTPWYQ | 1
2 | H. sapiens α-catenin ABD (αE-catenin 664-906), not Halo-tagged (domain or fragment, residues 699-871 modelled in the map; Form used for cryo-EM; source: E. coli Rosetta2(DE3), purified (Ni-NTA, TEV cleavage, HiTrapQ, Superdex 200; no glycerol); not shown: His6, N-terminal, cleaved; Strep-tag, N-terminal, cleaved) IAGQSARAIMAQLPQEQKAKIAEQVASFQEEKSKLDAEVSKWDDSGNDIIVLAKQMCMIMMEMTDFTRGKGPLKNTSDVISAAKKIAEAGSRMDKLGRTIADHCPDSACKQDLLAYLQRIALYCHQLNICSKVKAEVQNLGGELVVSGVDSAMSLIQAAKNLMNAVVQTVKASYVASTKYQKSQGMASLNLPAVSWKMKAPEKKPLVKREKQDETQTKIKRASQKKHVNPVQALSEFKAMDSI | 1
